According to patent publication US20030215874A1 (published 2003):

B1: bis-ANS treated GRP94 (porcine pancreas GRP94 preincubated with bis-ANS) (other, UniProt Q29092 22-804, looked up)
chain: EDEVDVDGTVEEDLGKSREGSRTDDEVVQREEEAIQLDGLNASQIRELREKSEKFAFQAEVNRMMKLIINSLYKNKEIFLRELISNASDALDKIRLISLTDENALAGNEELTVKIKCDKEKNLLHVTDTGVGMTREELVKNLGTIAKSGTSEFLNKMAEAQEDGQSTSELIGQFGVGFYSAFLVADKVIVTSKHNNDTQHIWESDSNEFSVIADPRGNTLGRGTTITLVLKEEASDYLELDTIKNLVKKYSQFINFPIYVWSSKTETVEEPMEEEEAAKEEKEESDDEAAVEEEEEEKKPKTKKVEKTVWDWELMNDIKPIWQRPSKEVEDDEYKAFYKSFSKESDDPMAYIHFTAEGEVTFKSILFVPTSAPRGLFDEYGSKKSDYIKLYVRRVFITDDFHDMMPKYLNFVKGVVDSDDLPLNVSRETLQQHKLLKVIRKKLVRKTLDMIKKIADEKYNDTFWKEFGTNIKLGVIEDHSNRTRLAKLLRFQSSHHPSDITSLDQYVERMKEKQDKIYFMAGSSRKEAESSPFVERLLKKGYEVIYLTEPVDEYCIQALPEFDGKRFQNVAKEGVKFDESEKSKENREAVEKEFEPLLNWMKDKALKDKIEKAVVSQRLTESPCALVASQYGWSGNMERIMKAQAYQTGKDISTNYYASQKKTFEINPRHPLIRDMLRRVKEDEDDKTVSDLAVVLFETATLRSGYLLPDTKAYGDRIERMLRLSLNIDPDAKVEEEPEEEPEETTEDTTEDTEQDDDEEMDAGADEEEQETSETSTAEKDEL
B2: GRP94 (glucose regulated protein of 94 kDa), native, purified from porcine pancreas (other, UniProt Q29092 22-804, looked up)
chain: EDEVDVDGTVEEDLGKSREGSRTDDEVVQREEEAIQLDGLNASQIRELREKSEKFAFQAEVNRMMKLIINSLYKNKEIFLRELISNASDALDKIRLISLTDENALAGNEELTVKIKCDKEKNLLHVTDTGVGMTREELVKNLGTIAKSGTSEFLNKMAEAQEDGQSTSELIGQFGVGFYSAFLVADKVIVTSKHNNDTQHIWESDSNEFSVIADPRGNTLGRGTTITLVLKEEASDYLELDTIKNLVKKYSQFINFPIYVWSSKTETVEEPMEEEEAAKEEKEESDDEAAVEEEEEEKKPKTKKVEKTVWDWELMNDIKPIWQRPSKEVEDDEYKAFYKSFSKESDDPMAYIHFTAEGEVTFKSILFVPTSAPRGLFDEYGSKKSDYIKLYVRRVFITDDFHDMMPKYLNFVKGVVDSDDLPLNVSRETLQQHKLLKVIRKKLVRKTLDMIKKIADEKYNDTFWKEFGTNIKLGVIEDHSNRTRLAKLLRFQSSHHPSDITSLDQYVERMKEKQDKIYFMAGSSRKEAESSPFVERLLKKGYEVIYLTEPVDEYCIQALPEFDGKRFQNVAKEGVKFDESEKSKENREAVEKEFEPLLNWMKDKALKDKIEKAVVSQRLTESPCALVASQYGWSGNMERIMKAQAYQTGKDISTNYYASQKKTFEINPRHPLIRDMLRRVKEDEDDKTVSDLAVVLFETATLRSGYLLPDTKAYGDRIERMLRLSLNIDPDAKVEEEPEEEPEETTEDTTEDTEQDDDEEMDAGADEEEQETSETSTAEKDEL
notes: also called native GRP94; gp96
B3: heat shocked GRP94 (porcine pancreas GRP94 incubated 15 minutes at 50 C) (other, UniProt Q29092 22-804, looked up)
chain: EDEVDVDGTVEEDLGKSREGSRTDDEVVQREEEAIQLDGLNASQIRELREKSEKFAFQAEVNRMMKLIINSLYKNKEIFLRELISNASDALDKIRLISLTDENALAGNEELTVKIKCDKEKNLLHVTDTGVGMTREELVKNLGTIAKSGTSEFLNKMAEAQEDGQSTSELIGQFGVGFYSAFLVADKVIVTSKHNNDTQHIWESDSNEFSVIADPRGNTLGRGTTITLVLKEEASDYLELDTIKNLVKKYSQFINFPIYVWSSKTETVEEPMEEEEAAKEEKEESDDEAAVEEEEEEKKPKTKKVEKTVWDWELMNDIKPIWQRPSKEVEDDEYKAFYKSFSKESDDPMAYIHFTAEGEVTFKSILFVPTSAPRGLFDEYGSKKSDYIKLYVRRVFITDDFHDMMPKYLNFVKGVVDSDDLPLNVSRETLQQHKLLKVIRKKLVRKTLDMIKKIADEKYNDTFWKEFGTNIKLGVIEDHSNRTRLAKLLRFQSSHHPSDITSLDQYVERMKEKQDKIYFMAGSSRKEAESSPFVERLLKKGYEVIYLTEPVDEYCIQALPEFDGKRFQNVAKEGVKFDESEKSKENREAVEKEFEPLLNWMKDKALKDKIEKAVVSQRLTESPCALVASQYGWSGNMERIMKAQAYQTGKDISTNYYASQKKTFEINPRHPLIRDMLRRVKEDEDDKTVSDLAVVLFETATLRSGYLLPDTKAYGDRIERMLRLSLNIDPDAKVEEEPEEEPEETTEDTTEDTEQDDDEEMDAGADEEEQETSETSTAEKDEL
notes: also called hs GRP94; heat-treated GRP94

Columns and labels:
[1] = biological target: the molecule itself; experiment: blue native PAGE (legend of FIG. 4), self-association
[2] = biological target: the molecule itself; experiment: blue native PAGE (BN-PAGE), self-association

Row | Protein | binding result [1] | binding result [2]
1 | B1 | binds | 
2 | B2 |  | binds
3 | B3 |  | binds
